First the molecules themselves.
B1: BCL10 full-length fused to mEos3.1 [human] / itself (parent)
chain: MEPTAPSLTEEDLTEVKKDALENLRVYLCEKIIAERHFDHLRAKKILSREDTEEISCRTSSRKRAGKLLDYLQENPKGLDTLVESIRREKTQNFLIQKITDEVLKLRNIKLEHLKGLKCSSCEPFPDGATNNLSRSNSDESNFSEKLRASTVMYHPEGESSTTPFFSTNSSLNLPVLEVGRTENTIFSSTTLPRPGDPGAPPLPPDLQLEEEGTCANSSEMFLPLRSRTVSRQ

This note sets out measurements from PMC9342958.

The test covers variants of B1. The experiment in a line: DAmFRET (Weibull fit) in yeast cells, homotypic self-assembly. To be noted: with itself; read off a plot.
MEPTAPSLTEEDLTEVKKDALENLRVYLCEKIIAERHFDHLRAKKILSREDTEEISCQTSSRKRAGKLLDYLQENPKGLDTLVESIRREKTQNFLIQKITDEVLKLRNIKLEHLKGLKCSSCEPFPDGATNNLSRSNSDESNFSEKLRASTVMYHPEGESSTTPFFSTNSSLNLPVLEVGRTENTIFSSTTLPRPGDPGAPPLPPDLQLEEEGTCANSSEMFLPLRSRTVSRQ [chain 1 R58Q]: the screen value turned out to be 0.38.
With MEPTAPSLTEEDLTEVKKDALENLRVYLCEKIIAERHFDHLRAKKILSREDTEEISCLTSSRKRAGKLLDYLQENPKGLDTLVESIRREKTQNFLIQKITDEVLKLRNIKLEHLKGLKCSSCEPFPDGATNNLSRSNSDESNFSEKLRASTVMYHPEGESSTTPFFSTNSSLNLPVLEVGRTENTIFSSTTLPRPGDPGAPPLPPDLQLEEEGTCANSSEMFLPLRSRTVSRQ [chain 1 R58L] the figure was 0.35; with MEPTAPSLTEEDLTEVKKDALENLRVYLCEKIIAERHFDHLRAKKILSREDTEEISCGTSSRKRAGKLLDYLQENPKGLDTLVESIRREKTQNFLIQKITDEVLKLRNIKLEHLKGLKCSSCEPFPDGATNNLSRSNSDESNFSEKLRASTVMYHPEGESSTTPFFSTNSSLNLPVLEVGRTENTIFSSTTLPRPGDPGAPPLPPDLQLEEEGTCANSSEMFLPLRSRTVSRQ [chain 1 R58G], 0.34.
